This is an account of results in paper PMC9467613 (mAbs, 2022).

To fix the notation:
B1: A01 (scFv, V domains shown)
VH: EVQLVESGGGVVQPGRSLRLSCAASGFTFSNKAMNWVRQAPGKGLEWVSAISGSGATTYYADSVKGRFTISRDNSKNTLYLQMNSLRAEDTAVYYCARKRWYGMDVWGQGTTVTVSS
VL: SYELTQPPSVSVAPGKTARITCGGNNIGSKSVHWYQQKPGQAPVLVVYDDSDRPSGIPERFSGSNSGNTATLTISRVEAGDEADYYCQVWDRGMIFGTGTKLTVL
B2: A10 (scFv, V domains shown)
VH: EVQLVESGGGVVQPGRSLRLSCAASGFTFSSRSMNWVRQAPGKGLEWVSAISGTGYTTYYADSVKGRFTISRDNSKNTLYLQMNSLRAEDTAVYYCARKRWYGMDVWGQGTTVTVSS
VL: SYELTQPPSVSVAPGKTARITCGGNNIGSKSVHWYQQKPGQAPVLVVYDDSDRPSGIPERFSGSNSGNTATLTISRVEAGDEADYYCQVWDRGMIFGTGTKLTVL
B3: B06 (scFv, V domains shown)
VH: EVQLVESGGGVVQPGRSLRLSCAASGFTFSNKAMNWVRQAPGKGLEWVSAISGSGATTYYADSVKGRFTISRDNSKNTLYLQMNSLRAEDTAVYYCARKRWYGMDVWGQGTTVTVSS
VL: SYELTQPPSVSVAPGKTARITCGGNNIGVKAVHWYQQKPGQAPVLVVYDDSDRPSGIPERFSGSNSGNTATLTISRVEAGDEADYYCQVWDRGMIFGTGTKLTVL
B4: A08 (scFv, V domains shown)
VH: EVQLVESGGGVVQPGRSLRLSCAASGFTFGDRAMNWVRQAPGKGLEWVSAISSSGTTSYYADSVKGRFTISRDNSKNTLYLQMNSLRAEDTAVYYCARKRWYGMDVWGQGTTVTVSS
VL: SYELTQPPSVSVAPGKTARITCGGNNIGSKSVHWYQQKPGQAPVLVVYDDSDRPSGIPERFSGSNSGNTATLTISRVEAGDEADYYCQVWDRGMIFGTGTKLTVL
B5: B09 (scFv, V domains shown)
VH: EVQLVESGGGVVQPGRSLRLSCAASGFTYSSRAMNWVRQAPGKGLEWVSAISSSGTTTYYADSVKGRFTISRDNSKNTLYLQMNSLRAEDTAVYYCARKRWYGMDVWGQGTTVTVSS
VL: SYELTQPPSVSVAPGKTARITCGGNNIGSKSVHWYQQKPGQAPVLVVYDDSDRPSGIPERFSGSNSGNTATLTISRVEAGDEADYYCQVWDRGMIFGTGTKLTVL
B6: A02 (scFv, V domains shown)
VH: EVQLVESGGGVVQPGRSLRLSCAASGFTFTSRAMNWVRQAPGKGLEWVSAISYEGRTQYYADSVKGRFTISRDNSKNTLYLQMNSLRAEDTAVYYCARKRWYGMDVWGQGTTVTVSS
VL: SYELTQPPSVSVAPGKTARITCGGNNIGSKSVHWYQQKPGQAPVLVVYDDSDRPSGIPERFSGSNSGNTATLTISRVEAGDEADYYCQVWDRGMIFGTGTKLTVL
B7: B04 (scFv, V domains shown)
VH: EVQLVESGGGVVQPGRSLRLSCAASGFSFSSRAMNWVRQAPGKGLEWVSAVSGSGSGTYYADSVKGRFTISRDNSKNTLYLQMNSLRAEDTAVYYCARKRWYGMDVWGQGTTVTVSS
VL: SYELTQPPSVSVAPGKTARITCGGNNIGLKSVHWYQQKPGQAPVLVVYDDSDRPSGIPERFSGSNSGNTATLTISRVEAGDEADYYCQVWDRGMIFGTGTKLTVL
B8: B11 (scFv, V domains shown)
VH: EVQLVESGGGVVQPGRSLRLSCAASGFTFTSRAMNWVRQAPGKGLEWVSAISGSGATAYYADSVKGRFTISRDNSKNTLYLQMNSLRAEDTAVYYCARKRWYGMDVWGQGTTVTVSS
VL: SYELTQPPSVSVAPGKTARITCGGNNIGSKSVHWYQQKPGQAPVLVVYDDSDRPSGIPERFSGSNSGNTATLTISRVEAGDEADYYCQVWDRGMIFGTGTKLTVL
B9: A12 (scFv, V domains shown)
VH: EVQLVESGGGVVQPGRSLRLSCAASGFTFDNRAMNWVRQAPGKGLEWVSAISSSGSTMYYADSVKGRFTISRDNSKNTLYLQMNSLRAEDTAVYYCARKRWYGMDVWGQGTTVTVSS
VL: SYELTQPPSVSVAPGKTARITCGGNNIGSKSVHWYQQKPGQAPVLVVYDDSDRPSGIPERFSGSNSGNTATLTISRVEAGDEADYYCQVWDSRTYVFGTGTKLTVL
B10: B03 (scFv, V domains shown)
VH: EVQLVESGGGVVQPGRSLRLSCAASGFTFGDRAMNWVRQAPGKGLEWVSAISGSGSGTYYADSVKGRFTISRDNSKNTLYLQMNSLRAEDTAVYYCARKRWYGMDVWGQGTTVTVSS
VL: SYELTQPPSVSVAPGKTARITCGGNNIGMKSVHWYQQKPGQAPVLVVYDDSDRPSGIPERFSGSNSGNTATLTISRVEAGDEADYYCQVWDRGMIFGTGTKLTVL
B11: B07 (scFv, V domains shown)
VH: EVQLVESGGGVVQPGRSLRLSCAASGFTFGDRAMNWVRQAPGKGLEWVSAISGSGATTYYADSVKGRFTISRDNSKNTLYLQMNSLRAEDTAVYYCARKRWYGMDVWGQGTTVTVSS
VL: SYELTQPPSVSVAPGKTARITCGGNNIGSKSVHWYQQKPGQAPVLVVYDDSDRPSGIPERFSGSNSGNTATLTISRVEAGDEADYYCQVWDRGMIFGTGTKLTVL
B12: A07 (scFv, V domains shown)
VH: EVQLVESGGGVVQPGRSLRLSCAASGFTFSSRSMNWVRQAPGKGLEWVSAISGSGSTVYYADSVKGRFTISRDNSKNTLYLQMNSLRAEDTAVYYCARKRWYGMDVWGQGTTVTVSS
VL: SYELTQPPSVSVAPGKTARITCGGNNIGSKSVHWYQQKPGQAPVLVVYDDSDRPSGIPERFSGSNSGNTATLTISRVEAGDEADYYCQVWDSRTYVFGTGTKLTVL
B13: A05 (scFv, V domains shown)
VH: EVQLVESGGGVVQPGRSLRLSCAASGFTYSSRAMNWVRQAPGKGLEWVSAISGSGSNAYYADSVKGRFTISRDNSKNTLYLQMNSLRAEDTAVYYCARKRWYGMDVWGQGTTVTVSS
VL: SYELTQPPSVSVAPGKTARITCGGNNIGSKSVHWYQQKPGQAPVLVVYDDSDRPSGIPERFSGSNSGNTATLTISRVEAGDEADYYCQVWDRGMIFGTGTKLTVL
B14: A11 (scFv, V domains shown)
VH: EVQLVESGGGVVQPGRSLRLSCAASGFTFSSRSMNWVRQAPGKGLEWVSAISGSGSTVYYADSVKGRFTISRDNSKNTLYLQMNSLRAEDTAVYYCARKRWYGMDVWGQGTTVTVSS
VL: SYELTQPPSVSVAPGKTARITCGGNNIGSKSVHWYQQKPGQAPVLVVYDDSDRPSGIPERFSGSNSGNTATLTISRVEAGDEADYYCQVWDRGMIFGTGTKLTVL
B15: B10 (scFv, V domains shown)
VH: EVQLVESGGGVVQPGRSLRLSCAASGFTFSTRAMNWVRQAPGKGLEWVSAISGTGDTTYYADSVKGRFTISRDNSKNTLYLQMNSLRAEDTAVYYCARKRWYGMDVWGQGTTVTVSS
VL: SYELTQPPSVSVAPGKTARITCGGNNIGSKSVHWYQQKPGQAPVLVVYDDSDRPSGIPERFSGSNSGNTATLTISRVEAGDEADYYCQVWGRYQMIFGTGTKLTVL
B16: B12 (scFv, V domains shown)
VH: EVQLVESGGGVVQPGRSLRLSCAASGFTFSDRAMNWVRQAPGKGLEWVSAISGTGASTYYADSVKGRFTISRDNSKNTLYLQMNSLRAEDTAVYYCARKRWYGMDVWGQGTTVTVSS
VL: SYELTQPPSVSVAPGKTARITCGGNNIGSKSVHWYQQKPGQAPVLVVYDDSDRPSGIPERFSGSNSGNTATLTISRVEAGDEADYYCQVWDRGMIFGTGTKLTVL
B17: B08 (scFv, V domains shown)
VH: EVQLVESGGGVVQPGRSLRLSCAASGFTFSDRAMNWVRQAPGKGLEWVSAISASGASRYYADSVKGRFTISRDNSKNTLYLQMNSLRAEDTAVYYCARKRWYGMDVWGQGTTVTVSS
VL: SYELTQPPSVSVAPGKTARITCGGNNIGSKSVHWYQQKPGQAPVLVVYDDSDRPSGIPERFSGSNSGNTATLTISRVEAGDEADYYCQVWDRGMIFGTGTKLTVL
B18: B02 (scFv, V domains shown)
VH: EVQLVESGGGVVQPGRSLRLSCAASGFTFSSRSMNWVRQAPGKGLEWVSAISGSGSTVYYADSVKGRFTISRDNSKNTLYLQMNSLRAEDTAVYYCARKRWYGMDVWGQGTTVTVSS
VL: SYELTQPPSVSVAPGKTARITCGGNNIGVKSVHWYQQKPGQAPVLVVYDDSDRSPGIPERFSGSNSGNTATLTISRVEAGDEADYYCQVWDSRTYVFGTGTKLTVL
B19: A09 (scFv, V domains shown)
VH: EVQLVESGGGVVQPGRSLRLSCAASGFTFSSRSMNWVRQAPGKGLEWVSAISGSGLTSYYADSVKGRFTISRDNSKNTLYLQMNSLRAEDTAVYYCARKRWYGMDVWGQGTTVTVSS
VL: SYELTQPPSVSVAPGKTARITCGGNNIGSKSVHWYQQKPGQAPVLVVYDDSDRPSGIPERFSGSNSGNTATLTISRVEAGDEADYYCQVWDRGMIFGTGTKLTVL

B7-H4 purified monomeric recombinant human protein, sequence (Q7Z7D3 25-259): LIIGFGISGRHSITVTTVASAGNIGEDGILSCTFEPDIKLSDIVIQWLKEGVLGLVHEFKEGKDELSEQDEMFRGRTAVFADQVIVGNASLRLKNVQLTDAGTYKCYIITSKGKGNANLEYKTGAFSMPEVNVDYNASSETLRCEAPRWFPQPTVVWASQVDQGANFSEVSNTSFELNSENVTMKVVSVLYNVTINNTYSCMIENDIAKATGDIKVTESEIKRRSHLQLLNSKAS

This assay addresses B7-H4 purified monomeric recombinant human protein (Homo sapiens, UniProt Q7Z7D3). In words: SPR.
Take B1: the dissociation constant (Kd) stood at 0.224 nM, the koff amounted to 3.7e-05 s⁻¹ and the kon was determined as 170000 M⁻¹ s⁻¹.

In the case of B2, the Kd turned out to be 0.103 nM, the koff was 1.4e-05 s⁻¹ and the kon is 140000 M⁻¹ s⁻¹.

Regarding B3, the Kd turned out to be 0.097 nM, the off-rate (koff) is 1.7e-05 s⁻¹ and the kon came out at 170000 M⁻¹ s⁻¹.

For the molecule B4, the Kd is 0.043 nM, the koff was 1.3e-05 s⁻¹ and the kon amounted to 310000 M⁻¹ s⁻¹.

Take B5: the Kd worked out at 0.118 nM, the koff turned out to be 2.5e-05 s⁻¹ and the kon was found to be 210000 M⁻¹ s⁻¹.

In the case of B6, the Kd was 0.039 nM, the koff came to 1.1e-05 s⁻¹ and the kon was found to be 280000 M⁻¹ s⁻¹.

With B7, the dissociation constant (Kd) turned out to be 0.172 nM, the koff was 2.7e-05 s⁻¹ and the kon turned out to be 160000 M⁻¹ s⁻¹.

As to B8, the Kd worked out at 0.068 nM, the koff worked out at 1.2e-05 s⁻¹ and the kon turned out to be 180000 M⁻¹ s⁻¹.

As for B9, the equilibrium dissociation constant (Kd) amounted to 0.139 nM, the koff amounted to 3.2e-05 s⁻¹ and the kon stood at 230000 M⁻¹ s⁻¹.

With B10, the Kd is 0.07 nM, the koff came to 2.1e-05 s⁻¹ and the kon is 300000 M⁻¹ s⁻¹.

As for B11, the Kd came out at 0.054 nM, the koff was 1.8e-05 s⁻¹ and the kon was determined as 330000 M⁻¹ s⁻¹.

On to B12, for which the Kd came out at 0.277 nM, the koff was determined as 4.7e-05 s⁻¹ and the kon turned out to be 170000 M⁻¹ s⁻¹.

With B13, the Kd was determined as 0.117 nM, the koff turned out to be 2.2e-05 s⁻¹ and the kon turned out to be 190000 M⁻¹ s⁻¹.

For B14, the Kd came to 0.06 nM, the koff was found to be 1.1e-05 s⁻¹ and the kon is 190000 M⁻¹ s⁻¹.

On to B15, for which the Kd was found to be 0.116 nM, the koff turned out to be 2.9e-05 s⁻¹ and the kon came out at 260000 M⁻¹ s⁻¹.

As for B16, the Kd is 0.084 nM, the koff came to 2.8e-05 s⁻¹ and the kon was 340000 M⁻¹ s⁻¹.

As to B17, the Kd is 0.117 nM, the koff was found to be 1.8e-05 s⁻¹ and the kon stood at 150000 M⁻¹ s⁻¹.

Regarding B18, the Kd is 0.059 nM, the dissociation rate constant (koff) was 1.1e-05 s⁻¹ and the kon came to 180000 M⁻¹ s⁻¹.

With B19, the Kd was determined as 0.074 nM, the off-rate constant (koff) amounted to 1.1e-05 s⁻¹ and the kon turned out to be 160000 M⁻¹ s⁻¹.
